Test results taken from patent US20180155451A1 (published 2018).

Assays:
Test in all cases: SPR (Biacore); KD of H240-Kn061/H240-Hl071/L73-k0 divided by KD of the variant
FcgRIIb = target: T1, FcgRIIb (human, UniProt P31994 43-217)
T1 construct: extracellular domain; also called FcγRIIb; not shown: His tag attached to the C terminus
T1 sequence (looked up): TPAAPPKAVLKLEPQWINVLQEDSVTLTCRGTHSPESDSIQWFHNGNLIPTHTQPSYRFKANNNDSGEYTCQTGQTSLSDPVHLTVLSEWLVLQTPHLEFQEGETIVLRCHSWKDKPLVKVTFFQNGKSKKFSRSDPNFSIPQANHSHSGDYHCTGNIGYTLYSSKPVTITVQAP
Description: (§1) The antibodies were assessed for the binding to each FcgR. […] The resultant value was defined as relative KD, and used as an assessment indicator.
(§2) Analysis of interaction between obj ective antibody and the FcγR was carried out using Biacore T100 (GE Healthcare), Biacore T200, Biacore A100, and Biacore 4000. HBS-EP+ (GE Healthcare) was used as the running buffer, and the measurement temperature was set to 25° C. Chips produced by immobilizing the antigen peptide by the amine coupling method to a Series S sensor Chip CM5 (GE Healthcare), chips produced by allowing preliminarily biotinylated antigen peptides to interact with and immobilize onto a Series S Sensor Chip SA (certified) (GE Healthcare), chips produced by immobilizing Protein L (ACTIGEN, BioVision) to Series S Sencor Chip CM5 (GE Healthcare), or chips produced by immobilizing Protein A/G (Thermo Scientific) to Series S Sencor Chip CM5 (GE Healthcare) were used. Antibodies of interest were captured onto these chips, and allowed to interact to each FcγR diluted with running buffer.

FcgRIIIa F = target: T2, FcgRIIIa F (human, UniProt P08637 17-208)
T2 construct: extracellular domain; also called FcγRIIIa F; 3aF; not shown: His tag attached to the C terminus
T2 sequence (P08637 17-208): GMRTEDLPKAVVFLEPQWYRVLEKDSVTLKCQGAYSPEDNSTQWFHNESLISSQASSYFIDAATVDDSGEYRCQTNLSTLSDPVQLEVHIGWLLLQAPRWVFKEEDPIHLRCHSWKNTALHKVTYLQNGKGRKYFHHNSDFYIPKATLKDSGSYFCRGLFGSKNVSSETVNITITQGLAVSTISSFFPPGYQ
Description: as §1, §2

FcgRIIIa V = target: T3, FcgRIIIa V (human, UniProt P08637 17-208)
T3 construct: extracellular domain; also called FcγRIIIa V; not shown: His tag attached to the C terminus
T3 sequence (P08637 17-208 F176V limits assumed): as the sequence (P08637 17-208) above, with F160V counted along it
Description: as §1, §2

B1: H240-Kn061 (W236Y)/H240-Hl071/L73-k0 (antibody, human IgG1, kappa)
heavy 1: QDQLVQSGAEVKKPGASVKVSCKASGFNIKDTYIQWVRQAPGQGLEWMGRIDPLRKQTKYREKFEGRVTITADTSTNTAYMELSSLRSEDTAVYYCVRSGREFDYWGQGTLVTVSSASTKGPSVFPLAPSSKSTSGGTAALGCLVKDYFPEPVTVSWNSGALTSGVHTFPAVLQSSGLYSLSSVVTVPSSSLGTQTYICNVNHKPSNTKVDKKVEPKSCDKTHTCPPCPAPEYYYGPSVFLFPPKPKDTLMISRTPEVTCVVVDVSDEDPEVKFNWYVDGVEVHNAKTKPREEQYNATYRVVSVLTVLHQDWLNGKEYKCKVSNKALPAPIEKTISKAKGQPREPQVCTLPPSRDELTKNQVSLWCLVKGFYPSDIAVEWESNGQPENNYKTTPPVLDSDGSFFLYSKLTVDKSRWQQGNVFSCSVMHEALHNHYTQKSLSLSP
heavy 2: QDQLVQSGAEVKKPGASVKVSCKASGFNIKDTYIQWVRQAPGQGLEWMGRIDPLRKQTKYREKFEGRVTITADTSTNTAYMELSSLRSEDTAVYYCVRSGREFDYWGQGTLVTVSSASTKGPSVFPLAPSSKSTSGGTAALGCLVKDYFPEPVTVSWNSGALTSGVHTFPAVLQSSGLYSLSSVVTVPSSSLGTQTYICNVNHKPSNTKVDKKVEPKSCDKTHTCPPCPAPELLGGPSVFLFPPKPKDTLMISRTPEVTCVVVDVSHEDPEVKFNWYVDGVEVHNAKTKPREEQYNSTYRVVSVLTVLHQDWLNGKEYKCKVSNDALPMPIEETISKAKGQPREPQVYTLPPSRCELTKNQVSLSCAVKGFYPSDIAVEWESNGQPENNYKTTPPVLDSDGSFFLVSKLTVDKSRWQQGNVFSCSVMHEALHNHYTQKSLSLSP
light: DIQMTQSPSSLSASVGDRVTITCRASQDIHKYIAWYQQKPGQAPRLLIQYTSTLQPGVPSRFSGSGSGTDYTFTISSLQPEDIATYYCLQYEQLRTFGGGTKVEIKRTVAAPSVFIFPPSDEQLKSGTASVVCLLNNFYPREAKVQWKVDNALQSGNSQESVTEQDSKDSTYSLSSTLTLSKADYEKHKVYACEVTHQGLSSPVTKSFNRGEC
Relative KD (FcgRIIb): 0.8
Relative KD (FcgRIIIa F): 0.8
Relative KD (FcgRIIIa V): 1.2

B2: H240-Kn061 (Y234H)/H240-Hl071/L73-k0 (antibody, human IgG1, kappa)
heavy 1: QDQLVQSGAEVKKPGASVKVSCKASGFNIKDTYIQWVRQAPGQGLEWMGRIDPLRKQTKYREKFEGRVTITADTSTNTAYMELSSLRSEDTAVYYCVRSGREFDYWGQGTLVTVSSASTKGPSVFPLAPSSKSTSGGTAALGCLVKDYFPEPVTVSWNSGALTSGVHTFPAVLQSSGLYSLSSVVTVPSSSLGTQTYICNVNHKPSNTKVDKKVEPKSCDKTHTCPPCPAPEHYWGPSVFLFPPKPKDTLMISRTPEVTCVVVDVSDEDPEVKFNWYVDGVEVHNAKTKPREEQYNATYRVVSVLTVLHQDWLNGKEYKCKVSNKALPAPIEKTISKAKGQPREPQVCTLPPSRDELTKNQVSLWCLVKGFYPSDIAVEWESNGQPENNYKTTPPVLDSDGSFFLYSKLTVDKSRWQQGNVFSCSVMHEALHNHYTQKSLSLSP
heavy 2: QDQLVQSGAEVKKPGASVKVSCKASGFNIKDTYIQWVRQAPGQGLEWMGRIDPLRKQTKYREKFEGRVTITADTSTNTAYMELSSLRSEDTAVYYCVRSGREFDYWGQGTLVTVSSASTKGPSVFPLAPSSKSTSGGTAALGCLVKDYFPEPVTVSWNSGALTSGVHTFPAVLQSSGLYSLSSVVTVPSSSLGTQTYICNVNHKPSNTKVDKKVEPKSCDKTHTCPPCPAPELLGGPSVFLFPPKPKDTLMISRTPEVTCVVVDVSHEDPEVKFNWYVDGVEVHNAKTKPREEQYNSTYRVVSVLTVLHQDWLNGKEYKCKVSNDALPMPIEETISKAKGQPREPQVYTLPPSRCELTKNQVSLSCAVKGFYPSDIAVEWESNGQPENNYKTTPPVLDSDGSFFLVSKLTVDKSRWQQGNVFSCSVMHEALHNHYTQKSLSLSP
light: DIQMTQSPSSLSASVGDRVTITCRASQDIHKYIAWYQQKPGQAPRLLIQYTSTLQPGVPSRFSGSGSGTDYTFTISSLQPEDIATYYCLQYEQLRTFGGGTKVEIKRTVAAPSVFIFPPSDEQLKSGTASVVCLLNNFYPREAKVQWKVDNALQSGNSQESVTEQDSKDSTYSLSSTLTLSKADYEKHKVYACEVTHQGLSSPVTKSFNRGEC
Relative KD (FcgRIIb): 1.3
Relative KD (FcgRIIIa F): 0.8
Relative KD (FcgRIIIa V): 0.9

B3: H240-Kn061 (Y234A)/H240-Hl071/L73-k0 (antibody, human IgG1, kappa)
heavy 1: QDQLVQSGAEVKKPGASVKVSCKASGFNIKDTYIQWVRQAPGQGLEWMGRIDPLRKQTKYREKFEGRVTITADTSTNTAYMELSSLRSEDTAVYYCVRSGREFDYWGQGTLVTVSSASTKGPSVFPLAPSSKSTSGGTAALGCLVKDYFPEPVTVSWNSGALTSGVHTFPAVLQSSGLYSLSSVVTVPSSSLGTQTYICNVNHKPSNTKVDKKVEPKSCDKTHTCPPCPAPEAYWGPSVFLFPPKPKDTLMISRTPEVTCVVVDVSDEDPEVKFNWYVDGVEVHNAKTKPREEQYNATYRVVSVLTVLHQDWLNGKEYKCKVSNKALPAPIEKTISKAKGQPREPQVCTLPPSRDELTKNQVSLWCLVKGFYPSDIAVEWESNGQPENNYKTTPPVLDSDGSFFLYSKLTVDKSRWQQGNVFSCSVMHEALHNHYTQKSLSLSP
heavy 2: QDQLVQSGAEVKKPGASVKVSCKASGFNIKDTYIQWVRQAPGQGLEWMGRIDPLRKQTKYREKFEGRVTITADTSTNTAYMELSSLRSEDTAVYYCVRSGREFDYWGQGTLVTVSSASTKGPSVFPLAPSSKSTSGGTAALGCLVKDYFPEPVTVSWNSGALTSGVHTFPAVLQSSGLYSLSSVVTVPSSSLGTQTYICNVNHKPSNTKVDKKVEPKSCDKTHTCPPCPAPELLGGPSVFLFPPKPKDTLMISRTPEVTCVVVDVSHEDPEVKFNWYVDGVEVHNAKTKPREEQYNSTYRVVSVLTVLHQDWLNGKEYKCKVSNDALPMPIEETISKAKGQPREPQVYTLPPSRCELTKNQVSLSCAVKGFYPSDIAVEWESNGQPENNYKTTPPVLDSDGSFFLVSKLTVDKSRWQQGNVFSCSVMHEALHNHYTQKSLSLSP
light: DIQMTQSPSSLSASVGDRVTITCRASQDIHKYIAWYQQKPGQAPRLLIQYTSTLQPGVPSRFSGSGSGTDYTFTISSLQPEDIATYYCLQYEQLRTFGGGTKVEIKRTVAAPSVFIFPPSDEQLKSGTASVVCLLNNFYPREAKVQWKVDNALQSGNSQESVTEQDSKDSTYSLSSTLTLSKADYEKHKVYACEVTHQGLSSPVTKSFNRGEC
Relative KD (FcgRIIb): 1.2
Relative KD (FcgRIIIa F): 0.8
Relative KD (FcgRIIIa V): 0.9

B4: H240-Kn061 (Y234G)/H240-Hl071/L73-k0 (antibody, human IgG1, kappa)
heavy 1: QDQLVQSGAEVKKPGASVKVSCKASGFNIKDTYIQWVRQAPGQGLEWMGRIDPLRKQTKYREKFEGRVTITADTSTNTAYMELSSLRSEDTAVYYCVRSGREFDYWGQGTLVTVSSASTKGPSVFPLAPSSKSTSGGTAALGCLVKDYFPEPVTVSWNSGALTSGVHTFPAVLQSSGLYSLSSVVTVPSSSLGTQTYICNVNHKPSNTKVDKKVEPKSCDKTHTCPPCPAPEGYWGPSVFLFPPKPKDTLMISRTPEVTCVVVDVSDEDPEVKFNWYVDGVEVHNAKTKPREEQYNATYRVVSVLTVLHQDWLNGKEYKCKVSNKALPAPIEKTISKAKGQPREPQVCTLPPSRDELTKNQVSLWCLVKGFYPSDIAVEWESNGQPENNYKTTPPVLDSDGSFFLYSKLTVDKSRWQQGNVFSCSVMHEALHNHYTQKSLSLSP
heavy 2: QDQLVQSGAEVKKPGASVKVSCKASGFNIKDTYIQWVRQAPGQGLEWMGRIDPLRKQTKYREKFEGRVTITADTSTNTAYMELSSLRSEDTAVYYCVRSGREFDYWGQGTLVTVSSASTKGPSVFPLAPSSKSTSGGTAALGCLVKDYFPEPVTVSWNSGALTSGVHTFPAVLQSSGLYSLSSVVTVPSSSLGTQTYICNVNHKPSNTKVDKKVEPKSCDKTHTCPPCPAPELLGGPSVFLFPPKPKDTLMISRTPEVTCVVVDVSHEDPEVKFNWYVDGVEVHNAKTKPREEQYNSTYRVVSVLTVLHQDWLNGKEYKCKVSNDALPMPIEETISKAKGQPREPQVYTLPPSRCELTKNQVSLSCAVKGFYPSDIAVEWESNGQPENNYKTTPPVLDSDGSFFLVSKLTVDKSRWQQGNVFSCSVMHEALHNHYTQKSLSLSP
light: DIQMTQSPSSLSASVGDRVTITCRASQDIHKYIAWYQQKPGQAPRLLIQYTSTLQPGVPSRFSGSGSGTDYTFTISSLQPEDIATYYCLQYEQLRTFGGGTKVEIKRTVAAPSVFIFPPSDEQLKSGTASVVCLLNNFYPREAKVQWKVDNALQSGNSQESVTEQDSKDSTYSLSSTLTLSKADYEKHKVYACEVTHQGLSSPVTKSFNRGEC
Relative KD (FcgRIIb): 0.9
Relative KD (FcgRIIIa F): 0.8
Relative KD (FcgRIIIa V): 0.9
